From patent publication US20220396819A1, “METHOD FOR PRODUCING PEPTIDE HAVING PHYSIOLOGICAL ACTIVITY, AND PEPTIDE COMPRISING SHORT LINKER” (priority 2019, published 2022) come the findings set out here.

For one assay, the target named is T1, Met (Homo sapiens, UniProt P08581).
T1 construct: endogenous in cells; host or cells: HEK293E
Kind of assay: Met activation ability, SRE luciferase assay in HEK293E cells (HGF-Erk-SRE pathway). Type of assay: cell-based. The settings on record: for Met activation ability: Example 37, cell-free translation solution diluted, FIG. 69. The method, then:
(§1) The Met activation ability of the HGF-PAS dimer peptide was evaluated by luciferase assay. To 25 μL of Opti-MEM medium (Thermo Fisher Scientific), 0.6 μL of Attractene Transfection Reagent (QIAGEN) was added, and the mixture was incubated at room temperature for 5 minutes. To the above mixed solution, a mixed solution of 25 μL of Opti-MEM and 1 μL of SRE reporter vector (QIAGEN) was added, and the mixture was incubated at room temperature for 20 minutes. This mixed solution was added to a 96-well plate, over which 40,000 cell/well HEK293E cells were seeded and incubated overnight in a 5% CO2 incubator at 37° C. After transfection, all culture supernatant was removed, 100 μL of Opti-MEM medium (evaluation basal medium) containing 0.5% FBS (Thermo Fisher Scientific), 1% non-essential amino acid solution (Thermo Fisher Scientific), and penicillin-streptomycin (Nacalai Tesque) was added, and incubation was performed at 37° C. for 4 hours, and thereby the cells were starved.
To the evaluation basal medium, 0 to 200 ng/mL HGF was added, or 0 to 800 ng/mL AET-PAS-aMD4dY-PEG11, AET-PAS-aMD4-PEG11, or AET-PAS-aMD4-PEG3 was added, or a culture supernatant containing PAS-aMD4dY-PEG11, PAS-aMD4-PEG11, or PAS-aMD4-PEG3 was added so as to be diluted 10-fold with respect to the medium, and the evaluation basal medium was added in an amount of 100 μL to the cells. The cells were stimulated by culturing overnight in a 5% CO2 incubator at 37° C.
The signal intensities were detected using Dual-Luciferase Reporter Assay System (Promega). The medium supernatant in an amount of 100 μL was removed, 50 μL of Glo reagent was added, and the cells were lysed for 10 minutes at room temperature. The luminescence of Firefly luciferase emitted from the cell lysate solution was detected with a plate reader to quantify the activation of the HGF-Erk-SRE pathway. Subsequently, 50 μL of Glo & Stop reagent solution was added, and after 10 minutes, the luminescence of the internal standard Renilla luciferase was detected to quantify the number of cells. The signal activity of each sample was quantified as SRE activity=(Firefly luciferase luminescence intensity)/(Renilla luciferase luminescence intensity). The relative signal activity values for the samples without addition of the evaluation compound were determined and used as relative receptor activity.
as §1, with “peptide linker variant” for “peptide”, “0.6 L” for “0.6 μL”
To the evaluation basal medium, 0 to 100 ng/mL HGF was added, or a culture supernatant containing AET-aMD4dY-PAS8, AET-aMD4dY-PAS22 (the same molecule as AET-PAS-aMD4dY-PEG11), AET-aMD4dY-PAS49, AET-aMD4dY-PAS100, AET-aMD4dY-PAS200, AET-aMD4dY-GS15, or AET-aMD4dY-GS22 was added to the medium so as to be diluted at a predetermined ratio, and the evaluation basal medium was added in an amount of 100 μL to the cells. The cells were stimulated by culturing overnight in a 5% CO2 incubator at 37° C.
The Met activation ability of the stabilized HGF-PAS dimer peptide was evaluated by luciferase assay. […]

A further assay addresses T2, VEGFR (Homo sapiens, UniProt P35968).
T2 construct: host or cells: VEGFR/NFAT Reporter HEK293 cells
In words: VEGF inhibitory ability, luciferase assay in VEGFR/NFAT Reporter HEK293 cells. Type of assay: cell-based. On the procedure: The VEGF inhibitory ability of the VEGFR_D2-PAS heterodimer peptide was evaluated by luciferase assay. 40,000 cell/well VEGFR/NFAT Reporter HEK293 cells (BPS Bioscience) were seeded and incubated overnight in a 5% CO2 incubator at 37° C. The cells were incubated overnight in Assay medium (MEM medium (Nacalai Tesque), 1×MEM Non-Essential Amino Acids Solution (Thermo Fisher Scientific), 1 mM Sodium Pyruvate (Nacalai Tesque), 1% Penicillin-Streptomycin (Sigma Aldrich), and 0.3% FBS (Thermo Fisher Scientific)) to starvation. […] The cells were stimulated by culturing in a 5% CO2 incubator at 37° C. for 4 hours.
One-Glo Luciferase Assay System (Promega) was used to detect the signal intensity. Medium supernatant in an amount of 50 μL was removed, 50 μL of One-Glo reagent was added, and the cells were lysed for 10 minutes at room temperature. The luminescence emitted from the cell lysate solution was detected with a Nivo plate reader (Perkin Elmer) to quantify the activation of the VEGFR-NFAT pathway, and the relative signal activity value for the sample without addition of evaluation compound was determined and used as relative receptor activity.
The VEGF inhibitory ability of the cell-free expressed VEGFR_D2-PAS heterodimer peptide was evaluated by luciferase assay. 40,000 cell/well VEGFR/NFAT Reporter HEK293 cells (BPS Bioscience) were seeded and incubated overnight in a 5% CO2 incubator at 37° C. The cells were incubated overnight in Assay medium (MEM medium (Nacalai Tesque), 1×MEM Non-Essential Amino Acids Solution (Thermo Fisher Scientific), 1 mM Sodium Pyruvate (Nacalai Tesque), 1% Penicillin-Streptomycin (Sigma Aldrich), and 0.3% FBS (Thermo Fisher Scientific)) to starvation. To the Assay medium, 100 μL of 10 ng/mL human recombinant VEGF (R&D Systems) was added, and further, MAET-VEGFR_D2-PAS16, MAET-VEGFR_D2-PAS49-b, MAET-VEGFR_D2-PAS100-b, or a cell-free expression solution containing MAET-VEGFR_D2-GS16, or a cell-free expression solution with unexpressed peptide was added at a predetermined dilution factor, and 100 μL of the Assay medium was added to the cells. The cells were stimulated by culturing in a 5% CO2 incubator at 37° C. for 4 hours.
The VEGF inhibitory ability of the VEGFR_D2-PAS heterodimer peptide linker variant was evaluated by luciferase assay. 40,000 cell/well VEGFR/NFAT Reporter HEK293 cells (BPS Bioscience) were seeded and incubated overnight in a 5% CO2 incubator at 37° C. The cells were incubated overnight in Assay medium (MEM medium (Nacalai Tesque), 1×MEM Non-Essential Amino Acids Solution (Thermo Fisher Scientific), 1 mM Sodium Pyruvate (Nacalai Tesque), 1% Penicillin-Streptomycin (Sigma Aldrich), and 0.3% FBS (Thermo Fisher Scientific)) to starvation. To the Assay medium, 10 ng/mL human recombinant VEGF (R&D Systems) was added, and further, a culture supernatant containing VEGFR_D2-PAS16, VEGFR_D2-PAS49, or VEGFR_D2-PAS100 at a predetermined concentration was added, and 100 μL of the Assay medium was added to the cells. The cells were stimulated by culturing in a 5% CO2 incubator at 37° C. for 4 hours. Note that VEGFR_D2-PAS16 was obtained according to the method described in Example 27.

The target in a further assay is Met (HGF receptor) (UniProt P08581 25-1390, limits assumed). Kind of assay: cell-based or functional assay.
Met (HGF receptor), sequence (P08581 25-1390 limits assumed): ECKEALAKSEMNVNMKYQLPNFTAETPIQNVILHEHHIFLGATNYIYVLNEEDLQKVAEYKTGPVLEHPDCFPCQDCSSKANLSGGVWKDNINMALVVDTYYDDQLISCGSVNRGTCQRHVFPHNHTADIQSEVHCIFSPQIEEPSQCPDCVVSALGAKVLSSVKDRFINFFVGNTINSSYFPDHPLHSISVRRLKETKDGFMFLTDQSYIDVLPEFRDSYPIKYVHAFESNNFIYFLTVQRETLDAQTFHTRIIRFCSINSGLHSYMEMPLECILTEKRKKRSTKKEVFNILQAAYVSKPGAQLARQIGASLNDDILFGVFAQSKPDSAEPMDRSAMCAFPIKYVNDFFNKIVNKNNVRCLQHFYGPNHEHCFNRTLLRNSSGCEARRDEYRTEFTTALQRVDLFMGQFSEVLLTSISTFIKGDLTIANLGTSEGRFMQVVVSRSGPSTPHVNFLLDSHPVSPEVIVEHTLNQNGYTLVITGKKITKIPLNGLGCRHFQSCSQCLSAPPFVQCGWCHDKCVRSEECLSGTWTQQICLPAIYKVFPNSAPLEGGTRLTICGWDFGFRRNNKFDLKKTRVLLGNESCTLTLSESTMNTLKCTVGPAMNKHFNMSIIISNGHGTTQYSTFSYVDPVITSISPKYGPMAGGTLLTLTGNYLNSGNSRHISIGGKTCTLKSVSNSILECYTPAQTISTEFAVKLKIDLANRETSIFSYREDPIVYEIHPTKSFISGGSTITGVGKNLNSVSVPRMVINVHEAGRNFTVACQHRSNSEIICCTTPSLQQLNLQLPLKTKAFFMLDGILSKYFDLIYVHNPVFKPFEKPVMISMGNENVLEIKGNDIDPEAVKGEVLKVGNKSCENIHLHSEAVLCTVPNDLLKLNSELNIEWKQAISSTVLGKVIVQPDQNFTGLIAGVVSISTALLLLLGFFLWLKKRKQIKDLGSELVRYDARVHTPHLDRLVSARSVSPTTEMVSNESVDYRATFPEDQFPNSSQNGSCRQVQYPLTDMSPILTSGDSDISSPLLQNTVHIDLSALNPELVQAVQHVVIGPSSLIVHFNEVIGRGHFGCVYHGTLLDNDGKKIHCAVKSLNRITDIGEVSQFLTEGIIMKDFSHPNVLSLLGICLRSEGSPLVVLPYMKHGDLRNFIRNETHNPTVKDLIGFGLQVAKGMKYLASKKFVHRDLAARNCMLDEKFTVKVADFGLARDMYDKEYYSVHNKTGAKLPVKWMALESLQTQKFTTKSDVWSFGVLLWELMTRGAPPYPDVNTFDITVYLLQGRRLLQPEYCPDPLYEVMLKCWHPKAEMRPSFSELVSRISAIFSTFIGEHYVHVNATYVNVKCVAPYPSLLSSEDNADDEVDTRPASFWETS

Entries after “also recorded” stand apart in the source; their conditions may differ. Positions of bridges follow the written chain, without caps; N, C: chain ends. No end group written: not given here.

T2 sequence (P35968 20-1356): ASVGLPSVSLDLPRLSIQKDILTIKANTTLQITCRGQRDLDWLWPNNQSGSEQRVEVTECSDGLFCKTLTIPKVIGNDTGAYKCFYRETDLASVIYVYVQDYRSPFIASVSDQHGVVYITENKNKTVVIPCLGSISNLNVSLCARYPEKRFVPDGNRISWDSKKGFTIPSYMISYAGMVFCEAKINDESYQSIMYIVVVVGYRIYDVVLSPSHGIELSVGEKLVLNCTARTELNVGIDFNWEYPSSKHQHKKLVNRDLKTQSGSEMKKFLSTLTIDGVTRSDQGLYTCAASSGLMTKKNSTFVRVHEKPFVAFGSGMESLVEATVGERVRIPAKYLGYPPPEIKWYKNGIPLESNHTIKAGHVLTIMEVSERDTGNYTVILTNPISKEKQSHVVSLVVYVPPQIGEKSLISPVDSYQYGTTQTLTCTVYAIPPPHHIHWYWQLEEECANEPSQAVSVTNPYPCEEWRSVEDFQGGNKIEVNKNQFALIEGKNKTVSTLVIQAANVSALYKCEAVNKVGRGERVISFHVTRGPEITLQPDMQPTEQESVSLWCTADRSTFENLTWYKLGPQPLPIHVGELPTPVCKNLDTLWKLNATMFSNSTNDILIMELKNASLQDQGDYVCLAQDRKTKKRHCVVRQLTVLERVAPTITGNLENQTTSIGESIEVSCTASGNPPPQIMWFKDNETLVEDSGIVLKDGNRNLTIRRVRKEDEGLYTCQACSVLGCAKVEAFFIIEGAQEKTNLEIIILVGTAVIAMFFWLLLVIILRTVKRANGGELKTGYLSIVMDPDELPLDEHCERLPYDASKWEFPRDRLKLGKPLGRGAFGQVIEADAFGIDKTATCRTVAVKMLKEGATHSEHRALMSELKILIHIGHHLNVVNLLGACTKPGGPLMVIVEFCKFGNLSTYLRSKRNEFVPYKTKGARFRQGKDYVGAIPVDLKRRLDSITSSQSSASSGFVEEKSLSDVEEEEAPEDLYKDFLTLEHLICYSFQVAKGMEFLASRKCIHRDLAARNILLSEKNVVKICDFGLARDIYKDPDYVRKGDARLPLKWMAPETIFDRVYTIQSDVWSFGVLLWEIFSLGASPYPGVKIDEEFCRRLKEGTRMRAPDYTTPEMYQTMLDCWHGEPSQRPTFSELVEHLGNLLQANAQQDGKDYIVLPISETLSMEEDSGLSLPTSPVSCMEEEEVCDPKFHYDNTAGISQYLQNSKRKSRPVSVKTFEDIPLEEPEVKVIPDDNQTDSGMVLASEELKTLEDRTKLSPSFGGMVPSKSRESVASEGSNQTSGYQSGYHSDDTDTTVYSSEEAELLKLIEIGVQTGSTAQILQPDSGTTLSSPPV
T1 sequence (P08581 25-1390): as the sequence (P08581 25-1390 limits assumed) above

On to “MAETCRQFNRRTHEVWNLDCGAAPAAPAPGCRQFNRRTHEVWNLDC (disulfide 5-20, 31-46) [MAET-aMD4dY-PAS8]”, for which, in the assay with Met, the Met activation ability entry is on record as “had Met activation ability”.

Consider “MAETAGPTWCEDDWYYCWLFGTAAPAAPAPAAPAAPAPVCWEDSWGGEVCWLFGT (disulfide 10-17, 40-50) [MAET-VEGFR_D2-PAS16]”, for which the “VEGF inhibitory activity (relative VEGF activity)” value with VEGFR (Example 39, cell-free expression solution, 10 ng/mL VEGF, FIGS. 71 and 72) was “higher inhibitory activity than MAET-VEGFR_D2-PAS100-b; also recorded: higher inhibitory activity than MAET-VEGFR_D2-GS16”.

Regarding “CRQFNRRTHEVWNLDC (disulfide 1-16) [aMD4dY, reference compound]”, the “signal activation ability, dimer versus monomer” value in the assay with Met (Example 43, FIG. 76) was “showed no signal activation ability”.

Turning to “MAETCRQFNRRTHEVWNLDCGAAPAAPAPAAPAAPAPAAPAAPGCRQFNRRTHEVWNLDC (disulfide 5-20, 45-60) [MAET-aMD4dY-PAS22]”, the Met activation ability entry with Met is reported as “had Met activation ability”.

As for “AETAGPTWCEDDWYYCWLFGTGGGGSGGGGSGGGGSGVCWEDSWGGEVCWLFGT (disulfide 9-16, 39-49) [AET-VEGFR_D2-GS16]”, the IC50 (usually the midpoint of a concentration-inhibition curve) at VEGFR was 2.93 nM.

Regarding “CRQFNRRTHEVWNLDCGAAPAAPAPAAPAAPAPAAPAAPGCRQFNRRTHEVWNLDC (disulfide 1-16, 41-56; also: PEG11) [PAS-aMD4dY-PEG11]”, the “maximum activity compared with HGF” value in the assay with Met (Example 6, AET form 0 to 800 ng/mL, PAS form culture supernatant diluted 10-fold) is “comparable to 100 ng/mL HGF”.

B1: AETCRQFNRRTHEVWNLDCGAAPAAPAPAAPAAPAPAAPAAPGCRQFNRRTHEVWNLDCGAAPAAPAPAAPAAPAPAAPAAPGCRQFNRRTHEVWNLDC (peptide)
chain: AETCRQFNRRTHEVWNLDCGAAPAAPAPAAPAAPAPAAPAAPGCRQFNRRTHEVWNLDCGAAPAAPAPAAPAAPAPAAPAAPGCRQFNRRTHEVWNLDC
modifications: AET-aMD4dY-PAS22-Trimer; DISULFID (4)..(19) Disulfid bridge between Cys-4 and Cys-19; DISULFID (44)..(59) Disulfid bridge between Cys-44 and Cys-59; DISULFID (84)..(99) Disulfid bridge between Cys-84 and Cys-99
Turning to B1, the “signal activation ability, trimer versus dimer” value with Met (Example 42, culture supernatant diluted, FIG. 75) is listed as “signal activation ability similar to the dimer peptide”.

B2: AET-aMD4dY-GS15 (peptide)
peptide: AETCRQFNRRTHEVWNLDCGGGGGSGGGGSGGGGSGCRQFNRRTHEVWNLDC
modifications: disulfide 4-19, 37-52
Consider B2, for which the “Emax (%)” value with Met (HGF receptor) is 45.8%.

B3: AET-aMD4dY-PAS200 (peptide)
peptide: AETCRQFNRRTHEVWNLDCGAAPAAPAPAAPAAPAPAAPAAPAPAAPAAPAPAAPAAPAPAAPAAPAPAAPAAPAPAAPAAPAPAAPAAPAPAAPAAPAPAAPAAPAPAAPAAPAPAAPAAPAPAAPAAPAPAAPAAPAPAAPAAPAPAAPAAPAPAAPAAPAPAAPAAPAPAAPAAPAPAAPAAPAPAAPAAPAPAAPAAPAPAAPAAPAPAAPAAPAPGCRQFNRRTHEVWNLDC
modifications: two disulfide bonds in the molecule
As for B3, in the assay with Met (HGF receptor), the “Emax (%)” value came to 20.4%.

B4: AET-aMD4dY-GS22 (peptide)
peptide: AETCRQFNRRTHEVWNLDCGGGGGSGGGGSGGGGSGGGGSGGGCRQFNRRTHEVWNLDC
modifications: disulfide 4-19, 44-59
In the case of B4, in the assay with Met (HGF receptor), the “Emax (%)” value was found to be 32.3%.

B5: MAETCYRQFNRRTHEVWNLDCGAAPAAPAPAAPAAPAPAAPAAPGCRQFNRRTHEVWNLDC (peptide)
chain: MAETCYRQFNRRTHEVWNLDCGAAPAAPAPAAPAAPAPAAPAAPGCRQFNRRTHEVWNLDC
modifications: disulfide 5-21, 46-61
Take B5: the Met activation ability entry with Met is “had Met activation ability”.

B6: AET-aMD4dY-PAS49 (peptide)
peptide: AETCRQFNRRTHEVWNLDCGAAPAAPAPAAPAAPAPAAPAAPAPAAPAAPAPAAPAAPAPAAPAAPAPAGCRQFNRRTHEVWNLDC
modifications: two disulfide bonds in the molecule
With B6, the “Emax (%)” value in the assay with Met (HGF receptor) came to 82.8%.

B7: AET-aMD4dY-PAS100 (peptide)
peptide: AETCRQFNRRTHEVWNLDCGAAPAAPAPAAPAAPAPAAPAAPAPAAPAAPAPAAPAAPAPAAPAAPAPAAPAAPAPAAPAAPAPAAPAAPAPAAPAAPAPAAPAAPAPAAPAAPAPAAPAGCRQFNRRTHEVWNLDC
modifications: two disulfide bonds in the molecule
On to B7, for which the “Emax (%)” value with Met (HGF receptor) came to 47.2%.

B8: AET-PAS-aMD4dY-PEG11 (peptide)
peptide: AETCRQFNRRTHEVWNLDCGAAPAAPAPAAPAAPAPAAPAAPGCRQFNRRTHEVWNLDC
modifications: disulfide 4-19, 44-59; also: PEG11 in name, stated same as AET-aMD4dY-PAS22
In the case of B8, in the assay with Met (HGF receptor), the “Emax (%)” value worked out at 100%.

Consider AETCRQFNRRTHEVWNLDCGAAPAAPAPGCRQFNRRTHEVWNLDC (disulfide 4-19, 30-45) [AET-aMD4dY-PAS8], for which the “Emax (%)” value with Met (HGF receptor) stood at 56.4%.
